This data set relates to T1, Cc1cc(=O)oc2cc(NC(=O)[C@H](CCCNC(=N)N)NC(=O)[C@H](Cc3ccccc3)NC(=O)OCc3ccccc3)ccc12.
T1 construct: substrate Z-FR-AMC
As to the kind of experiment: Km of PK for its fluorogenic substrate (used for ka correction, eq 2). It is filed as biochemical, human. As to conditions: other: PK, substrate Z-FR-AMC, kinetics in 50 mM Tris pH 7.5, 150 mM NaCl, 0.05% Triton X-100, 0.01% BSA, 25° C. From the text: hK2 and hK3 (PSA) were purified from human semen as previously described (Frenette G, Gervais Y, Tremblay R R, Dube J Y. 1998 “Contamination of purified prostate-specific antigen preparations by kallikrein hK2” J Urol 159, 1375-8), anti-hK2 and anti-PSA monoclonal antibodies were a gift from Professor R R Tremblay, Laval University, Canada. Human chymotrypsin (Chtr), urokinase plasminogen activator (uPA), human kallikrein hK1, human plasma kallikrein (PK), human neutrophil elastase (HNE) and commercial ACT (human plasma α1-antichymotrypsin) were purchased from Calbiochem. […]
The association rate constants for interactions of hK2, chymotrypsin, PK and HNE with different rACTs were determined under pseudo-first order conditions using the progress curve method (Morrison J F, Walsh C T. 1988 “The behavior and significance of slow-binding enzyme inhibitors” Adv. Enzymol. Relat. Areas Mol. Biol 61, 201-301). […] Each reaction was made in reaction buffer (50 mM Tris pH 7.5, 150 mM NaCl, 0.05% Triton X-100, 0.01% BSA) at 25° C. for 45 min and the rate of product formation was measured using a FLx800 fluorescence 96-well microplate reader (Biotek, USA). […]
For each inhibitor, a kobs was calculated, for four different concentrations of inhibitors, by non linear regression of the data using equation 1. […]

Sequence of human plasma kallikrein (PK) (Homo sapiens) (chain, as listed by the source): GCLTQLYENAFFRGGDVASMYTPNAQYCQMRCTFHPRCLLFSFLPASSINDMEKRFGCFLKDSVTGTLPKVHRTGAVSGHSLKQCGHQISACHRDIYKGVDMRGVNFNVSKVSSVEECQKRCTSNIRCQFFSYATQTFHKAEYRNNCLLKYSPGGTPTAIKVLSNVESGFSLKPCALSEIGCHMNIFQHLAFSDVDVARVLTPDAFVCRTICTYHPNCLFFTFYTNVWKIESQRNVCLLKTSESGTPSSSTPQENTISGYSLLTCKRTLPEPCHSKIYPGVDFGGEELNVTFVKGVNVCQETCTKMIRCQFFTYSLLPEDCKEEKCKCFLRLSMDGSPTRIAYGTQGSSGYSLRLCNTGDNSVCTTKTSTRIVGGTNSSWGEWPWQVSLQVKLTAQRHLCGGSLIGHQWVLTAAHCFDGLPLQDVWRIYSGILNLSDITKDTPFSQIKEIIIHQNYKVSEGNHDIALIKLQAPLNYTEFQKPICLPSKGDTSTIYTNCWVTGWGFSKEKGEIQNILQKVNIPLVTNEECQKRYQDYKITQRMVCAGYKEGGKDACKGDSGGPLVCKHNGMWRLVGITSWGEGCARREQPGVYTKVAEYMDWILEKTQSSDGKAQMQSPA

In the case of “human plasma kallikrein (PK) (Homo sapiens)”, the Km – broadly, the concentration of substrate that gives half-maximal velocity – worked out at 170 µM.

The values are drawn from patent publication US8975370B2, “Inhibitor proteins of a protease and use thereof” (Universite de Lausanne, priority 2003, dated 2015).
